Literature values in PMC11076503.

Target: Mpro (Severe acute respiratory syndrome coronavirus 2) (UniProt P0DTD1)

Mpro (from UniProt P0DTD1)
Kd: 7 µM
